Laboratory results from patent US11130793B2, “GLP-1/GLP-2 dual agonists” (Zealand Pharma A/S, priority 2016, dated 2021).
Square brackets hold non-standard residues; d marks the D form. Peptide text beside a SMILES is read from it. Aib = CC(C)(N)C(=O)O

B1: Compound 40 (peptide)
peptide: H-HGEGSFSSELATILDEQAARDFIAWLIQHKITD-NH2
B2: Compound 41 (peptide)
peptide: H-H[Aib]EGSFSSELATILDEQAARDFIAWLIQHKITD-OH
SMILES: CC[C@H](C)[C@H](NC(=O)[C@H](Cc1ccccc1)NC(=O)[C@H](CC(=O)O)NC(=O)[C@H](CCCNC(=N)N)NC(=O)[C@H](C)NC(=O)[C@H](C)NC(=O)[C@H](CCC(N)=O)NC(=O)[C@H](CCC(=O)O)NC(=O)[C@H](CC(=O)O)NC(=O)[C@H](CC(C)C)NC(=O)[C@@H](NC(=O)[C@@H](NC(=O)[C@H](C)NC(=O)[C@H](CC(C)C)NC(=O)[C@H](CCC(=O)O)NC(=O)[C@H](CO)NC(=O)[C@H](CO)NC(=O)[C@H](Cc1ccccc1)NC(=O)[C@H](CO)NC(=O)CNC(=O)[C@H](CCC(=O)O)NC(=O)C(C)(C)NC(=O)[C@@H](N)Cc1c[nH]cn1)[C@@H](C)O)[C@@H](C)CC)C(=O)N[C@@H](C)C(=O)N[C@@H](Cc1c[nH]c2ccccc12)C(=O)N[C@@H](CC(C)C)C(=O)N[C@H](C(=O)N[C@@H](CCC(N)=O)C(=O)N[C@@H](Cc1c[nH]cn1)C(=O)N[C@@H](CCCCN)C(=O)N[C@H](C(=O)N[C@H](C(=O)N[C@@H](CC(=O)O)C(=O)O)[C@@H](C)O)[C@@H](C)CC)[C@@H](C)CC
B3: Compound 39 (peptide)
peptide: H-H[Aib]EGTFSSELSTILEEQASREFIAWLIAHKITE-OH
SMILES: CC[C@H](C)[C@H](NC(=O)[C@H](CC(C)C)NC(=O)[C@H](Cc1c[nH]c2ccccc12)NC(=O)[C@H](C)NC(=O)[C@@H](NC(=O)[C@H](Cc1ccccc1)NC(=O)[C@H](CCC(=O)O)NC(=O)[C@H](CCCNC(=N)N)NC(=O)[C@H](CO)NC(=O)[C@H](C)NC(=O)[C@H](CCC(N)=O)NC(=O)[C@H](CCC(=O)O)NC(=O)[C@H](CCC(=O)O)NC(=O)[C@H](CC(C)C)NC(=O)[C@@H](NC(=O)[C@@H](NC(=O)[C@H](CO)NC(=O)[C@H](CC(C)C)NC(=O)[C@H](CCC(=O)O)NC(=O)[C@H](CO)NC(=O)[C@H](CO)NC(=O)[C@H](Cc1ccccc1)NC(=O)[C@@H](NC(=O)CNC(=O)[C@H](CCC(=O)O)NC(=O)C(C)(C)NC(=O)[C@@H](N)Cc1c[nH]cn1)[C@@H](C)O)[C@@H](C)O)[C@@H](C)CC)[C@@H](C)CC)C(=O)N[C@@H](C)C(=O)N[C@@H](Cc1c[nH]cn1)C(=O)N[C@@H](CCCCN)C(=O)N[C@H](C(=O)N[C@H](C(=O)N[C@@H](CCC(=O)O)C(=O)O)[C@@H](C)O)[C@@H](C)CC

Key:
human GLP-2 receptor = target: T1, human GLP-2 receptor (Homo sapiens, UniProt O95838, D470N); test: GLP-2 receptor potency assay (cAMP AlphaScreen, HEK293 cells stably expressing GLP-2R); format: cell-based; details: cAMP response, HEK293 cells expressing human GLP-2R
T1 sequence (O95838 1-553 D470N): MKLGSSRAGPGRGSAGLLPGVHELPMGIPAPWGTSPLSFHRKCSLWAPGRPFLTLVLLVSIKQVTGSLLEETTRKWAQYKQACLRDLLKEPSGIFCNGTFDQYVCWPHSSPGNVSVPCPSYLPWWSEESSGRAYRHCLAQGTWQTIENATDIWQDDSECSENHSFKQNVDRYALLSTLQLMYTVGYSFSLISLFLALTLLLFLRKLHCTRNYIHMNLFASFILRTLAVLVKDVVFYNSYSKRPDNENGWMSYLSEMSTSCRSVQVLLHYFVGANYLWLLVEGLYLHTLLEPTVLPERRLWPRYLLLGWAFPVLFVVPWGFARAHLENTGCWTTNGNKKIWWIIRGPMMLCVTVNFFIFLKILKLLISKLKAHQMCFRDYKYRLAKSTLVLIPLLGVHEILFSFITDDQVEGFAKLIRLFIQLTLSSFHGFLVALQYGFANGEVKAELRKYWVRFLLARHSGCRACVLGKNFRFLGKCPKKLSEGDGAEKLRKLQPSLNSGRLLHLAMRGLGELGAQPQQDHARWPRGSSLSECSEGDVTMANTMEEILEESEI
Text: (§1) One useful in vitro assay for measuring GLP-1 and GLP-2 receptor activity is quantitation of cAMP, i.e. 3′-5′-cyclic adenosine monophosphate, which is a second messenger essential in many biological processes, and one of the most ubiquitous mechanisms for regulating cellular functions. […] Test compounds eliciting an increase in the intracellular level of cAMP can be tested in these assays, and the response normalized relative to a positive and negative control (vehicle) to calculate the EC50 and maximal response from the concentration response curve using the 4-parameter logistic (4PL) nonlinear model for curve fitting.
The hGLP2-R was purchased from MRC-geneservice, Babraham, Cambridge as an Image clone: 5363415 (11924-I17). For subcloning into a mammalian expression vector, primers for subcloning were obtained from DNA-Technology, Risskov, Denmark. The 5′ and 3′ primers used for the PCR reaction include terminal restriction sites for cloning and the context of the 5′ primer is modified to a Kozak consensus without changing the sequence of the product encoded by the ORF. A standard PCR reaction was run using Image clone 5363415 (11924-117) as a template with the above mentioned primers and Polymerase Herculase II Fusion in a total vol. of 50 μl. The generated PCR product was purified using GFX PCR and Gel band purification kit, digested with restriction enzymes and cloned into the mammalian expression vector using Rapid DNA Ligation Kit. Ligation reaction was transformed to XL10 Gold Ultracompetent cells and colonies were picked for DNA production using Endofree Plasmid maxi kit. Subsequent sequence analysis was conducted by MWG Eurofins, Germany.
HEK293 cells were transfected using the Lipofectamine PLUS transfection method. The day before transfection, HEK293 cells were seeded in two T75 flasks at a density of 2×10^6 cells/T75 flask in cell culturing medium without antibiotics. On the day of transfection, cells were washed with 1×DPBS and medium was replaced with Optimem to a volume of 5 mL/T75 flask before addition of Lipofectamine-plasmid complexes were added gently and drop wise to the cells in T75 flasks and replaced with growth medium after 3 hours and again to growth medium supplemented with 500 μg/mL G418 after 24 hours. Following 4 weeks in G418 selection, clones were picked and tested in a functional GLP-2 receptor potency assay as described below.
(§2) The cAMP AlphaScreen assay from Perkin Elmer was used to quantitate the cAMP response to activation of the GLP1 and GLP2 receptor, respectively. […] Data from test compounds eliciting an increase in the intracellular level of cAMP were normalized relative to the positive and negative control (vehicle) to calculate the EC50 and maximal response from the concentration response curve.

human GLP-1 receptor = target: T2, human GLP-1 receptor (Homo sapiens, UniProt P43220); test: GLP-1 receptor potency assay (cAMP AlphaScreen, HEK293 cells stably expressing GLP-1R); format: cell-based; details: cAMP response, HEK293 cells expressing human GLP-1R; read-out: EC50 GLP-1
T2 construct: expressed in transfected cells
Text: as §1
The cDNA encoding the human glucagon-like peptide 1 receptor (GLP-1R) (primary accession number P43220) was cloned from the cDNA BC112126 (MGC:138331/IMAGE:8327594). The DNA encoding the GLP-1-R was amplified by PCR using primers encoding terminal restriction sites for subcloning. The 5′-end primers additionally encoded a near Kozak consensus sequence to ensure efficient translation. […] The PCR products encoding the GLP-1-R were subcloned into a mammalian expression vector containing a neomycin (G418) resistance marker. The mammalian expression vectors encoding the GLP-1-R were transfected into HEK293 cells by a standard calcium phosphate transfection method. 48 hours post-transfection, cells were seeded for limited dilution cloning and selected with 1 mg/ml G418 in the culture medium. Following 3 weeks in G418 selection clones were picked and tested in a functional GLP-1 receptor potency assay as described below.
as §2

[1] = target: human glucagon-like peptide 1 receptor (GLP-1R) (human, UniProt P43220); test: cell-based or functional assay
[2] = target: T3, human GLP-2 receptor (hGLP2-R) (human, UniProt O95838); test: cell-based or functional assay
T3 sequence: T1 sequence (O95838 1-553 D470N)

T2 sequence (P43220 24-463): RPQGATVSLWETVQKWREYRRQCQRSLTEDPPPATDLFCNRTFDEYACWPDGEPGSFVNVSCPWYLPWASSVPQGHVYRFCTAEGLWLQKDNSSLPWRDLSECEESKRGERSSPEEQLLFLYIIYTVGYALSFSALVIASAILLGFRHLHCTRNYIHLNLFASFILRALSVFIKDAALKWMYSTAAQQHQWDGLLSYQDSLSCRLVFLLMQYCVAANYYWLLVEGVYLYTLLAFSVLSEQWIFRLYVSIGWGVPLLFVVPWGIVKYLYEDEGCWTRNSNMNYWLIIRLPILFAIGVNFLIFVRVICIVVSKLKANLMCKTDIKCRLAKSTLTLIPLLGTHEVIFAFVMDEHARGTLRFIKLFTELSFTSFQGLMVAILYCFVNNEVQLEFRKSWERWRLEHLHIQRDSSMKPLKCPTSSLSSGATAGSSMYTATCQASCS

Row | EC50 (human GLP-2 receptor) [nM] | EC50 (human GLP-1 receptor) [nM] | EC50 GLP-1 (nM); cAMP AlphaScreen [1] [nM] | EC50 GLP-2 (nM); cAMP AlphaScreen [2] [nM] | Molecule
1 | 0.034 | 0.046 | – | – | CC[C@H](C)[C@H](NC(=O)[C@H](CC(C)C)NC(=O)[C@H](Cc1c[nH]c2ccccc12)NC(=O)[C@H](C)NC(=O)[C@@H](NC(=O)[C@H](Cc1ccccc1)NC(=O)[C@H](CC(=O)O)NC(=O)[C@H](CCCNC(=N)N)NC(=O)[C@H](C)NC(=O)[C@H](C)NC(=O)[C@H](CCC(N)=O)NC(=O)[C@H](CCC(=O)O)NC(=O)[C@H](CC(=O)O)NC(=O)[C@H](CC(C)C)NC(=O)[C@@H](NC(=O)[C@@H](NC(=O)[C@H](C)NC(=O)[C@H](CC(C)C)NC(=O)[C@H](CCC(=O)O)NC(=O)[C@H](CO)NC(=O)[C@H](CO)NC(=O)[C@H](Cc1ccccc1)NC(=O)[C@@H](NC(=O)CNC(=O)[C@H](CCC(=O)O)NC(=O)C(C)(C)NC(=O)[C@@H](N)Cc1c[nH]cn1)[C@@H](C)O)[C@@H](C)O)[C@@H](C)CC)[C@@H](C)CC)C(=O)N[C@@H](C)C(=O)N[C@@H](Cc1c[nH]cn1)C(=O)N[C@@H](CCCCN)C(=O)N[C@H](C(=O)N[C@H](C(=O)N[C@@H](CC(=O)O)C(=O)O)[C@@H](C)O)[C@@H](C)CC [Compound 2] (H-H[Aib]EGTFSSELATILDEQAARDFIAWLIAHKITD-OH)
2 | 0.041 | 0.007 | – | – | CC[C@H](C)[C@H](NC(=O)[C@H](CC(C)C)NC(=O)[C@H](Cc1c[nH]c2ccccc12)NC(=O)[C@H](C)NC(=O)[C@@H](NC(=O)[C@H](Cc1ccccc1)NC(=O)[C@H](CC(=O)O)NC(=O)[C@H](CCCNC(=N)N)NC(=O)[C@H](C)NC(=O)[C@H](C)NC(=O)[C@H](CCC(N)=O)NC(=O)[C@H](CCC(=O)O)NC(=O)[C@H](CC(=O)O)NC(=O)[C@H](CC(C)C)NC(=O)[C@@H](NC(=O)[C@@H](NC(=O)[C@H](C)NC(=O)[C@H](CC(C)C)NC(=O)[C@H](CCC(=O)O)NC(=O)[C@H](CC(=O)O)NC(=O)[C@@H](NC(=O)[C@H](Cc1ccccc1)NC(=O)[C@@H](NC(=O)CNC(=O)[C@H](CCC(=O)O)NC(=O)C(C)(C)NC(=O)[C@@H](N)Cc1c[nH]cn1)[C@@H](C)O)[C@@H](C)O)[C@@H](C)O)[C@@H](C)CC)[C@@H](C)CC)C(=O)N[C@@H](C)C(=O)N[C@@H](Cc1c[nH]cn1)C(=O)N[C@@H](CCCCN)C(=O)N[C@H](C(=O)N[C@H](C(=O)N[C@@H](CC(=O)O)C(=O)O)[C@@H](C)O)[C@@H](C)CC [Compound 9] (H-H[Aib]EGTFTDELATILDEQAARDFIAWLIAHKITD-OH)
3 | – | 39 | – | – | CC[C@H](C)[C@H](NC(=O)[C@H](Cc1ccccc1)NC(=O)[C@H](CC(=O)O)NC(=O)[C@H](CCCNC(=N)N)NC(=O)[C@H](C)NC(=O)[C@H](C)NC(=O)[C@H](CC(C)C)NC(=O)[C@H](CC(N)=O)NC(=O)[C@H](CC(=O)O)NC(=O)[C@H](CC(C)C)NC(=O)[C@@H](NC(=O)[C@@H](NC(=O)[C@H](CC(N)=O)NC(=O)[C@H](CCSC)NC(=O)[C@H](CCC(=O)O)NC(=O)[C@H](CC(=O)O)NC(=O)[C@H](CO)NC(=O)[C@H](Cc1ccccc1)NC(=O)[C@H](CO)NC(=O)CNC(=O)[C@H](CC(=O)O)NC(=O)CNC(=O)[C@@H](N)Cc1c[nH]cn1)[C@@H](C)O)[C@@H](C)CC)C(=O)N[C@@H](CC(N)=O)C(=O)N[C@@H](Cc1c[nH]c2ccccc12)C(=O)N[C@@H](CC(C)C)C(=O)N[C@H](C(=O)N[C@@H](CCC(N)=O)C(=O)N[C@H](C(=O)N[C@@H](CCCCN)C(=O)N[C@H](C(=O)N[C@H](C(=O)N[C@@H](CC(=O)O)C(=O)O)[C@@H](C)O)[C@@H](C)CC)[C@@H](C)O)[C@@H](C)CC [Teduglutide, [Gly2]-hGLP-2 (1-33), reference compound]
4 | – | – | 1.4 | 0.05 | B1
5 | – | – | 0.078 | 0.026 | B2
6 | – | – | 0.03 | 0.96 | B3
